These results are taken from article PMC6313988.

For the test, the target named is hypothetical protein ST2166 (putative isocitrate dehydrogenase) from Sulfolobus tokodaii strain 7 (Sulfolobus tokodaii strain 7). Briefly: crystal structure; hanging-drop crystals of ST2166 (8 mg/mL) in 13% PEG 10,000, 100 mM HEPES pH 7.5, 10°C; space group P21, two monomers in the asymmetric unit; apo form at 2.0 Å and crystal soaked with 25 mM NADP+ at 2.4 Å.

Usually stoichiometry N stands for a count of units in the complex or per binding partner.

With “hypothetical protein ST2166 (putative isocitrate dehydrogenase) from Sulfolobus tokodaii strain 7 (enzyme)”, the stoichiometry N worked out at 2.
